What follows are substances tested against HLA-A*0201 (human) (assay: 125I-probe peptide inhibition, purified HLA). Conditions: not given.

Row | IC50 [µM] | Substance
1 | 0.735 | p53.129 (9-mer) (peptide)

What follows are substances tested against HLA-A*0206 (human) (assay: 125I-probe peptide inhibition, purified HLA). Conditions: not given.

Row | IC50 [µM] | Substance
2 | 0.841 | p53.65 (10-mer) (peptide)

Each substance was assayed against HLA-A*0301 (human) (assay: 125I-probe peptide inhibition, purified HLA). Conditions: not given.

Row | IC50 [µM] | Substance
3 | 0.55 | p53.240 (9-mer …) (peptide)

What follows are substances tested against HLA-A*6801 (human) (assay: 125I-probe peptide inhibition, purified HLA). Conditions: not given.

Row | IC50 [µM] | Substance
4 | 0.571 | p53.273 (8-mer) (peptide)

Each substance was assayed against HLA-A*2401 (human) (assay: competition vs 125I-labelled probe peptide, purified HLA, gel filtration). Conditions: scale: ratio to standard peptide.

Row | relative binding ratio | Substance
5 | 5.1 | p53 peptide, position 125, 10 amino acids
6 | 0.0001 | p53 peptide, position 340, 9 amino acids
7 | 0.11 | p53 peptide, position 102, 8 amino acids
8 | -0.0003 | p53 peptide, position 22, 11 amino acids
9 | -0.0004 | p53 peptide, position 337, 8 amino acids
10 | 0.028 | p53 peptide, position 106, 8 amino acids
11 | 0.0001 | p53 peptide, position 117, 10 amino acids
12 | 0.0016 | p53 peptide, position 18, 8 amino acids
13 | 0.001 | p53 peptide, position 18, 9 amino acids
14 | 0.02 | p53 peptide, position 106, 9 amino acids
15 | 0.12 | p53 peptide, position 102, 10 amino acids
16 | 0.001 | p53 peptide, position 204, 9 amino acids
17 | 0.0023 | p53 peptide, position 43, 11 amino acids

The substances below were run against HLA-A*0301 (human) (assay: competition with 125I-labelled probe peptide for purified HLA-A*0301). Conditions: not given.

Row | relative binding ratio | Substance
18 | 0.0035 | p53 peptide, position 311, 10 amino acids
